Where only a bound is given, the exact number is not on record here.

These results are taken from the Immune Epitope Database (IEDB).

One experiment concerns the target HLA-B*27:05. Briefly: IEDB peptide-MHC binding, purified MHC/direct/fluorescence; filed as Kd, often an IC50 or EC50 that approximates it; ≥ and ≤ were set here for values at or beyond the usual limits of such assays. The note with it: source organism: Marburg virus - Musoke, Kenya, 1980.
The target in a further experiment is HLA-B*07:02. Described as above. The settings on record: source organism: Marburg virus - Musoke, Kenya, 1980.
A further experiment addresses HLA-B*57:01. The description is as above. The note with it: source organism: Marburg virus - Musoke, Kenya, 1980.
The target in experiment [1] is HLA-A*01:01. Described as above. The note with it: source organism: Marburg virus - Musoke, Kenya, 1980.
The target of the next experiment is HLA-A*11:01. The experiment is described as above. The note with it: source organism: Marburg virus - Musoke, Kenya, 1980.
The next experiment addresses HLA-A*69:01. Described as above. The note with it: source organism: Marburg virus - Musoke, Kenya, 1980.
The target of a further experiment is HLA-B*48:01. The description is as above. The note with it: source organism: Marburg virus - Musoke, Kenya, 1980.
The target of another experiment is HLA-B*58:01. Described as above. The note with it: source organism: Marburg virus - Musoke, Kenya, 1980.
The target in a further experiment is HLA-B*15:09. Described as above. The settings on record: source organism: Ravn virus - Ravn, Kenya, 1987.
For another experiment, the target named is HLA-A*68:02. Described as above. The note with it: source organism: Marburg virus - Musoke, Kenya, 1980.
The target in a further experiment is HLA-B*73:01. Described as above. The settings on record: source organism: Marburg virus - Musoke, Kenya, 1980.
A further experiment deals with HLA-A*31:01. Described as above. The settings on record: source organism: Marburg virus - Musoke, Kenya, 1980.
In a further experiment the target is HLA-B*08:02. The experiment is described as above. The note with it: source organism: Ravn virus - Ravn, Kenya, 1987.
In experiment [2] the target is HLA-B*18:01. The description is as above. The settings on record: source organism: Marburg virus - Musoke, Kenya, 1980.
The target in another experiment is HLA-B*15:01. Briefly: IEDB peptide-MHC binding, purified MHC/competitive/fluorescence; filed as Kd, often an IC50 or EC50 that approximates it; ≥ and ≤ were set here for values at or beyond the usual limits of such assays.
The next experiment addresses HLA-A*26:03. The experiment is described as above.
The target of the next experiment is HLA-B*39:01. The experiment is described as above.
The next experiment deals with HLA-B*15:17. Described as above.
The next experiment addresses HLA-A*26:01. The description is as above. The note with it: source organism: Orthomarburgvirus marburgense.
The next experiment concerns the target HLA-A*26:02. Described as above.
For another experiment, the target named is HLA-A*24:02. Described as above.
In the next experiment the target is HLA-C*07:02. The experiment is described as follows: IEDB peptide-MHC binding, purified MHC/direct/fluorescence; filed as Kd, often an IC50 or EC50 that approximates it; ≥ and ≤ were set here for values at or beyond the usual limits of such assays.
A further experiment concerns the target HLA-A*02:06. The experiment is described as follows: IEDB peptide-MHC binding, purified MHC/competitive/fluorescence; filed as Kd, often an IC50 or EC50 that approximates it; ≥ and ≤ were set here for values at or beyond the usual limits of such assays.
In the next experiment the target is HLA-A*02:03. Described as above.
A further experiment deals with HLA-B*08:01. The description is as above. The settings on record: source organism: Homo sapiens.
The next experiment has as its target HLA-A*30:01. The experiment is described as above. The settings on record: source organism: Homo sapiens.
Experiment [3] concerns the target HLA-B*18:01. The description is as above. The settings on record: source organism: Homo sapiens.
The target of another experiment is HLA-A*02:01. The description is as above. The settings on record: source organism: Human immunodeficiency virus 1.
The target of another experiment is HLA-B*35:01. The experiment is described as above. The note with it: source organism: Human immunodeficiency virus 1.
The next experiment addresses HLA-A*32:15. Described as above. The note with it: source organism: Staphylococcus aureus subsp. aureus N315.
For another experiment, the target named is HLA-A*29:02. Described as above. The note with it: source organism: Staphylococcus aureus subsp. aureus N315.
The next experiment concerns the target HLA-A*32:07. The description is as above. The note with it: source organism: Staphylococcus aureus subsp. aureus N315.
Experiment [4] addresses HLA-A*01:01. The description is as above. The note with it: source organism: Staphylococcus aureus subsp. aureus N315.
For the next experiment, the target named is HLA-B*15:42. The description is as above. The settings on record: source organism: Staphylococcus aureus subsp. aureus N315.
The next experiment addresses HLA-B*45:06. Described as above. The note with it: source organism: Staphylococcus aureus subsp. aureus N315.
Another experiment concerns the target HLA-C*06:02. The experiment is described as follows: IEDB peptide-MHC binding, purified MHC/direct/fluorescence; filed as Kd, often an IC50 or EC50 that approximates it; ≥ and ≤ were set here for values at or beyond the usual limits of such assays. The note with it: source organism: Rickettsia felis URRWXCal2.
In the next experiment the target is HLA-C*14:02. Described as above. The settings on record: source organism: Rickettsia felis URRWXCal2.
For the next experiment, the target named is HLA-C*15:02. The description is as above. The note with it: source organism: Rickettsia felis URRWXCal2.
The mark [5] stands for this setting: source organism: Orthomarburgvirus marburgense.
Setting [6] is: source organism: Human immunodeficiency virus 1.

One may read the Kd as the equilibrium constant for the complex coming apart. Higher therefore signals a looser complex. As for ARHGEYAPF, the Kd was 0.168 µM with HLA-B*27:05; at least 20 µM with HLA-B*07:02; at least 20 µM with HLA-B*57:01; at least 20 µM with HLA-A*01:01 [1]; at least 20 µM in the experiment with HLA-A*11:01; at least 20 µM with HLA-A*69:01. Besides, the Kd in the experiment with HLA-B*48:01, with HLA-B*58:01, with HLA-B*15:09, with HLA-A*68:02, in the experiment with HLA-B*73:01 and in the experiment with HLA-A*31:01 was at least 20 µM each time. Moreover, the Kd in the experiment with HLA-B*08:02 was at least 20 µM; with HLA-B*18:01 [2], at least 20 µM; in the experiment with HLA-B*15:01 (setting [5]), 3.34 µM; with HLA-A*26:03 (setting [5]), at least 20 µM; with HLA-B*39:01 (setting [5]), 1.09 µM; with HLA-B*15:17 (setting [5]) it was at least 20 µM. Also, the Kd amounted to 4 µM in the experiment with HLA-A*26:01 and 0.738 µM with HLA-A*26:02 (setting [5]).
Regarding EYLRIPLTI, in the experiment with HLA-A*24:02 (source organism: Entamoeba histolytica HM-1:IMSS), the Kd was at most 0.0001 µM.
On to FRHSVVVPY, for which the dissociation constant (Kd) is at most 0.001 µM in the experiment with HLA-C*07:02 (source organism: Homo sapiens); 0.315 µM with HLA-B*15:01 (source organism: Homo sapiens); at least 20 µM in the experiment with HLA-A*26:03 (source organism: Homo sapiens); at least 20 µM in the experiment with HLA-B*39:01 (source organism: Homo sapiens); at least 20 µM with HLA-A*02:06 (source organism: Homo sapiens); at least 20 µM in the experiment with HLA-A*02:03 (source organism: Homo sapiens). For the same sequence, the Kd with HLA-B*08:01 is at least 20 µM; with HLA-A*30:01, 4.08 µM; with HLA-A*26:02 (source organism: Homo sapiens), at least 20 µM; with HLA-B*18:01 [3], 0.477 µM.
Consider LYNTIAVLY, for which the Kd is 2.13 µM in the experiment with HLA-C*07:02 (setting [6]); 2.32 µM with HLA-A*02:01; 1.87 µM with HLA-B*35:01; 0.759 µM in the experiment with HLA-A*02:06 (setting [6]); at least 20 µM with HLA-B*15:17 (setting [6]); 0.721 µM with HLA-A*02:03 (setting [6]). The sequence also registered a Kd with HLA-A*26:02 (setting [6]) of at least 20 µM.
As to MVIKWIHER, the Kd in the experiment with HLA-A*32:15 was 0.0525 µM; with HLA-A*29:02 it was 0.548 µM; with HLA-A*32:07, 0.203 µM; in the experiment with HLA-A*01:01 [4] it was 17 µM; with HLA-B*15:42, at least 5 µM; with HLA-B*45:06, at least 5 µM.
In the case of RWLPLVSLF, the dissociation constant (Kd) with HLA-C*06:02 is at least 20 µM; with HLA-C*14:02, 0.399 µM; with HLA-C*15:02 it was at least 20 µM; with HLA-A*24:02 (source organism: Rickettsia felis URRWXCal2) it was at most 0.0001 µM.
